Values quoted from earlier work in patent publication US20100216667A1, “METHOD FOR DETERMINING COMPATIBILITY OF AN ACTIVE PHARMACEUTICAL INGREDIENT WITH MATERIALS” (priority 2008, published 2010).

Conditions: pre-filled syringes with uncoated stoppers and Polysorbate-80

Question: Which “Pure red cell aplasia (PRCA) in treated patients” value does the source give for “EPREX: marketed product whose active ingredient is erythropoietin” here?
Answer: increase in pure red cell aplasia (PRCA)
